In patent US20240091321A1 one finds Bmax and Kd data, which are given here for 2 molecules.

For assay [1], the target named is CI-MPR receptor. The assay is described as follows: CIMPR binding assay, PPT1 conditioned media, dilution starting at 50 nM, bound PPT1 activity; the table prints no units, units of the axes.
The target of assay [2] is CI-MPR receptor. The assay is described as follows: CIMPR binding assay, PPT1 conditioned media, curves starting at 25 nM, bound PPT1 activity; the table prints no units, units of the axes.

B1: PPT1-105 (enzyme, part only; not given: linker identity, part only)
fusion protein, part: SRALQHLDPPAPLPLVIWHGMGDSCCNPLSMGAIKKMVEKKIPGIYVLSLEIGKTLMEDVENSFFLNVNSQVTTVCQALAKDPKLQQGYNAMGFSQGGQFLRAVAQRCPSPPMINLISVGGQHQGVFGLPRCPGESSHICDFIRKTLNAGAYSKVVQERLVQAEYWHDPIKEDVYRNHSIFLADINQERGINESYKKNLMALKKFVMVKFLNDSIVDPVDSEWFGFYRSGQAKETIPLQETSLYTQDRLGLKEMDNAGQLVFLATEGDHLQLSEEWFYAHIIPFLGRPRAVPTQSRTLCGGELVDTLQFVCGDRGFLFSRGGGGSRGILEECCFRDCDLALLETYCATPARSE
Broadly, the Kd is a measure of binding affinity in units of concentration. As for B1, in the assay with CI-MPR receptor [1], the Bmax was 73.5 nmol/mL/h and the Kd is 4.45 nM. In addition, in the assay with CI-MPR receptor [2], the Bmax turned out to be 73.5 nmol/mL/h and the Kd stood at 4.45 nM.

B2: PPT1-106 (enzyme, part only; not given: linker identity, part only)
fusion protein, part: SRALQHLDPPAPLPLVIWHGMGDSCCNPLSMGAIKKMVEKKIPGIYVLSLEIGKTLMEDVENSFFLNVNSQVTTVCQALAKDPKLQQGYNAMGFSQGGQFLRAVAQRCPSPPMINLISVGGQHQGVFGLPRCPGESSHICDFIRKTLNAGAYSKVVQERLVQAEYWHDPIKEDVYRNHSIFLADINQERGINESYKKNLMALKKFVMVKFLNDSIVDPVDSEWFGFYRSGQAKETIPLQETSLYTQDRLGLKEMDNAGQLVFLATEGDHLQLSEEWFYAHIIPFLGRPRAVPTQSRTLCGGELVDTLQFVCGDRGFLFSRGGGGSRGILEECCFRECDLALLETYCATPARSE
In the assay with CI-MPR receptor [1], B2 yielded a Bmax of 91.4 nmol/mL/h and a Kd of 5.46 nM. In the assay with CI-MPR receptor [2], this molecule returned a Bmax of 91.4 nmol/mL/h and a Kd of 5.46 nM.
